Values joined by “and” are separate entries in the source; they are usually repeats but may differ in a detail not shown here. Identical values can stand only once.
Columns and labels:
[1] = target: T1, human IL-13 R130Q variant (R110Q of the mature chain) (human, UniProt P35225 35-146, Biotinylated on amines (NHS-LC-biotin, 4:1) in ELISA, panning and competition assays. The letters are unchanged.); experiment: competition ELISA, biotinylated IL-13 R130Q binding to plate-bound IL-13Ra2, crude supernatant
T1 construct: R130Q counts from Met 1 of the signal peptide, R110Q on the mature chain; Bought from Peprotech; also called IL-13 R110Q; b-R130Q

[2] = target: T1, human IL-13 R130Q variant (R110Q of the …); experiment: direct binding ELISA, mAb captured by anti-human Fc, biotinylated IL-13 R130Q, crude supernatant;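 further: 100% is the positive control mAb signal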
[3] = target: T1, human IL-13 R130Q variant (R110Q of the …); experiment: SPR (Biacore), mAb made in CHO
[4] = target: T1, human IL-13 R130Q variant (R110Q of the …); experiment: SPR (Biacore), mAb made in HEK293
[5] = target: T2, human wild-type IL-13 (mature chain) (human, UniProt P35225 35-146, Biotinylated on amines (NHS-LC-biotin) in the competition assays. The letters are unchanged.); experiment: cell-based or functional assay
[6] = target: T2, human wild-type IL-13 (mature chain); experiment: Luminex competition, inhibition of 500 pg/ml biotinylated wt IL-13 binding to IL-13Ra2
[7] = target: T1, human IL-13 R130Q variant (R110Q of the …); experiment: single-point (10 nM) phage Fab ELISA on biotinylated IL-13 R130Q

Binder	Percent Inhibition IL-13 R130Q (333 ng/ml) to Ra2 [1] [%]	Percent IL-13 R130Q (30 ng/ml) Binding [2] [%]	other results
Lc3Hc6 (antibody, V domains shown) VH: QVQLVESGGGVVQPGRSLRLSCAASGFSLSTYGMGVGWVRQAPGKGLEWVAHIWWDDVKRYNPALKSRFTISRDNSKNTLYLQMNSLRAEDTAVYYCARMGSDYDVWFDYWGQGTLVTVSS VL: AIQLTQSPSSLSASVGDRVTITCRASKSISKYLAWYQQKPGKAPKLLIYSGSTLQSGVPSRFSGSGSGTDFTLTISSLQPEDFATYYCQQHNEYPYTFGGGTKVEIK	14	26.6	–
Lc7Hc6 (antibody, V domains shown) VL: DIQLTQSPSSLSASVGDRVTITCRASKSISKYLAWYRQKPGKVPKLLIYSGSTLQSGVPSRFSGSGSGTDFTLTISSLQPEDVATYYGQQHNEYPYTFGQGTKLEIK VH: QVQLVESGGGVVQPGRSLRLSCAASGFSLSTYGMGVGWVRQAPGKGLEWVAHIWWDDVKRYNPALKSRFTISRDNSKNTLYLQMNSLRAEDTAVYYCARMGSDYDVWFDYWGQGTLVTVSS	4	-0.3	–
mAb Lc-2B03 with Hc2 M34S, M100L (antibody, V domains shown, full-length mAb, made in HEK293 and CHO) VH: QVTLKESGPVLVKPTETLTLTCTVSGFSLSTYGSGVGWIRQPPGKALEWLAHIWWDDVKRYNPALKSRLTISKDTSKSQVVLTMTNMDPVDTATYYCARLGSDYDVWFDYWGQGTLVTVSS VL: EIVLTQSPATLSLSPGERATLSCRASKSISKYLAWYQQKPGQAPRLLIYSGSTLQSGIPARFSGSGSGTDFTLTISSLEPEDFAVYYCQQHDYPYTFGQGTKLEIK	–	–	Kd [3]: 0.0184 nM; Kd [4]: 0.0014 nM
Lc15Hc2 (antibody, V domains shown) VH: QVTLKESGPVLVKPTETLTLTCTVSGFSLSTYGMGVGWIRQPPGKALEWLAHIWWDDVKRYNPALKSRLTISKDTSKSQVVLTMTNMDPVDTATYYCARMGSDYDVWFDYWGQGTLVTVSS VL: VIWMTQSPSLLSASTGDRVTISCRASKSISKYLAWYQQKPGKAPELLIYSGSTLQSGVPSRFSGSGSGTDFTLTISCLQSEDFATYYCQQHNEYPYTFGGGTKVEIK	61	94.8	–
Lc15Hc1 (antibody, V domains shown) VH: QVTLKESGPALVKPTQTLTLTCTFSGFSLSTYGMGVGWIRQPPGKALEWLAHIWWDDVKRYNPALKSRLTISKDTSKNQVVLTMTNMDPVDTATYYCARMGSDYDVWFDYWGQGTLVTVSS VL: VIWMTQSPSLLSASTGDRVTISCRASKSISKYLAWYQQKPGKAPELLIYSGSTLQSGVPSRFSGSGSGTDFTLTISCLQSEDFATYYCQQHNEYPYTFGGGTKVEIK	44	76.2	–
Lc7Hc1 (antibody, V domains shown) VL: DIQLTQSPSSLSASVGDRVTITCRASKSISKYLAWYRQKPGKVPKLLIYSGSTLQSGVPSRFSGSGSGTDFTLTISSLQPEDVATYYGQQHNEYPYTFGQGTKLEIK VH: QVTLKESGPALVKPTQTLTLTCTFSGFSLSTYGMGVGWIRQPPGKALEWLAHIWWDDVKRYNPALKSRLTISKDTSKNQVVLTMTNMDPVDTATYYCARMGSDYDVWFDYWGQGTLVTVSS	6	-1.4	–
Lc10Hc2 (antibody, V domains shown) VH: QVTLKESGPVLVKPTETLTLTCTVSGFSLSTYGMGVGWIRQPPGKALEWLAHIWWDDVKRYNPALKSRLTISKDTSKSQVVLTMTNMDPVDTATYYCARMGSDYDVWFDYWGQGTLVTVSS VL: DIQLTQSPSFLSASVGDRVTITCRASKSISKYLAWYQQKPGKAPKLLIYSGSTLQSGVPSRFSGSGSGTEFTLTISSLQPEDFATYYCQQHNEYPYTFGGGTKVEIK	57	78.9	–
mAb Lc-2B03 with Hc2 M34E, M100L, V106I (antibody, V domains shown, full-length mAb) VH: QVTLKESGPVLVKPTETLTLTCTVSGFSLSTYGEGVGWIRQPPGKALEWLAHIWWDDVKRYNPALKSRLTISKDTSKSQVVLTMTNMDPVDTATYYCARLGSDYDIWFDYWGQGTLVTVSS VL: EIVLTQSPATLSLSPGERATLSCRASKSISKYLAWYQQKPGQAPRLLIYSGSTLQSGIPARFSGSGSGTDFTLTISSLEPEDFAVYYCQQHDYPYTFGQGTKLEIK	–	–	P-STAT6 EC50 [5]: 1.79 ng/mL; Kd [4]: 0.0114 nM; IC50 [6]: 2.54 ng/mL
Lc12Hc1 (antibody, V domains shown) VH: QVTLKESGPALVKPTQTLTLTCTFSGFSLSTYGMGVGWIRQPPGKALEWLAHIWWDDVKRYNPALKSRLTISKDTSKNQVVLTMTNMDPVDTATYYCARMGSDYDVWFDYWGQGTLVTVSS VL: DIQMTQSPSSLSASVGDRVTITCRASKSISKYLAWYQQKPEKAPKSLIYSGSTLQSGVPSRFSGSGSGTDFTLTISSLQPEDFATYYCQQHNEYPYTFGGGTKVEIK	26	36.4	–
Fab clone 4F07 (IL-13-62 library) (Fab, V domains shown, Fab on phage pIX) VH: QVTLKESGPVLVKPTETLTLTCTVSGFSLSTYGMGVGWIRQPPGKALEWLAHIWWDDVKRYNPALKSRLTISKDTSKSQVVLTMTNMDPVDTATYYCARMGSDYDVWFDYWGQGTLVTVSS VL: EIVLTQSPATLSLSPGERATLSCRASKSISKYLAWYQQKPGQAPRLLIYSGSTLQSGIPARFSGSGSGTDFTLTISSLEPEDFAVYYCQQPIDAPYTFGQGTKLEIK	–	–	Signal (% of Lc16Hc7) [7]: 116%
Fab clone 4D01 (IL-13-62 library) (Fab, V domains shown, Fab on phage pIX) VH: QVTLKESGPVLVKPTETLTLTCTVSGFSLSTYGMGVGWIRQPPGKALEWLAHIWWDDVKRYNPALKSRLTISKDTSKSQVVLTMTNMDPVDTATYYCARMGSDYDVWFDYWGQGTLVTVSS VL: EIVLTQSPATLSLSPGERATLSCRASKSISKYLAWYQQKPGQAPRLLIYSGSTLQSGIPARFSGSGSGTDFTLTISSLEPEDFAVYYCQQPLDVPYTFGQGTKLEIK	–	–	Signal (% of Lc16Hc7) [7]: 140%
Lc11Hc2 (antibody, V domains shown) VH: QVTLKESGPVLVKPTETLTLTCTVSGFSLSTYGMGVGWIRQPPGKALEWLAHIWWDDVKRYNPALKSRLTISKDTSKSQVVLTMTNMDPVDTATYYCARMGSDYDVWFDYWGQGTLVTVSS VL: AIRMTQSPSSFSASTGDRVTITCRASKSISKYLAWYQQKPGKAPKLLIYSGSTLQSGVPSRFSGSGSGTDFTLTISCLQSEDFATYYCQQHNEYPYTFGGGTKVEIK	51	92.2	–
Lc4Hc2 (antibody, V domains shown) VH: QVTLKESGPVLVKPTETLTLTCTVSGFSLSTYGMGVGWIRQPPGKALEWLAHIWWDDVKRYNPALKSRLTISKDTSKSQVVLTMTNMDPVDTATYYCARMGSDYDVWFDYWGQGTLVTVSS VL: DIQMTQSPSSLSASVGDRVTITCRASKSISKYLAWYQQKPGKAPKRLIYSGSTLQSGVPSRFSGSGSGTEFTLTISSLQPEDFATYYCQQHNEYPYTFGGGTKVEIK	55	84.7	–
mAb Lc-2B03 with Hc2 M34S, M100L, V106I (antibody, V domains shown, full-length mAb; both are written under this molecule) VH: QVTLKESGPVLVKPTETLTLTCTVSGFSLSTYGSGVGWIRQPPGKALEWLAHIWWDDVKRYNPALKSRLTISKDTSKSQVVLTMTNMDPVDTATYYCARLGSDYDIWFDYWGQGTLVTVSS VL: EIVLTQSPATLSLSPGERATLSCRASKSISKYLAWYQQKPGQAPRLLIYSGSTLQSGIPARFSGSGSGTDFTLTISSLEPEDFAVYYCQQHDYPYTFGQGTKLEIK	–	–	P-STAT6 EC50 [5]: 1.1 ng/mL; Kd [4]: 0.0205 nM and 0.0209 nM; IC50 [6]: 2.25 ng/mL
mAb Lc-2B03 with Hc2 M34V, M100L, V106I (antibody, V domains shown, full-length mAb) VH: QVTLKESGPVLVKPTETLTLTCTVSGFSLSTYGVGVGWIRQPPGKALEWLAHIWWDDVKRYNPALKSRLTISKDTSKSQVVLTMTNMDPVDTATYYCARLGSDYDIWFDYWGQGTLVTVSS VL: EIVLTQSPATLSLSPGERATLSCRASKSISKYLAWYQQKPGQAPRLLIYSGSTLQSGIPARFSGSGSGTDFTLTISSLEPEDFAVYYCQQHDYPYTFGQGTKLEIK	–	–	Kd [4]: 0.0252 nM
Lc5Hc2 (antibody, V domains shown) VH: QVTLKESGPVLVKPTETLTLTCTVSGFSLSTYGMGVGWIRQPPGKALEWLAHIWWDDVKRYNPALKSRLTISKDTSKSQVVLTMTNMDPVDTATYYCARMGSDYDVWFDYWGQGTLVTVSS VL: DIQLTQSPSFLSASVGDRVTITCRASKSISKYLAWYQQKPGKAPKLLIYSGSTLQSGVPSRFSGSGSGTEFTLTISSLQPEDFATYYCQQHNEYPYTFGQGTKVEIK	57	85.9	–

Source: patent US20120045438A1 (Janssen / Centocor, published 2012)
